Measurements taken from the supplement of paper PMC9112550, “Optimization of the antimicrobial peptide Bac7 by deep mutational scanning” (BMC Biology, 2022).

What follows are sequences tested on Escherichia coli TOP10 (assay: shrunken log2 fold change of peptide-encoding DNA abundance (4.5 h post-induction vs induction); higher = less antimicrobial activity (less host growth inhibition)). Conditions: time post-induction: 4.5 h; library: site-saturation at positions 5, 18, 19, 20.
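Also: peptides expressed intracellularly from a pBAD plasmid library in pooled LB shake-flask culture, induced with 0.3% L-arabinose, DNA abundance read by NGS, three biological replicates, DESeq2 with apeglm shrinkage.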

Which “shrunken log2 fold change” value does the source give for RRIRQRPPRLPRPRPRPRVTPRP here?
Its value is 0.238.

How did the “shrunken log2 fold change” value turn out when RRIRFRPPRLPRPRPRPWILPRP was run?
The value was -0.144.

RRIRVRPPRLPRPRPRPCRTPRP was tested. Which “shrunken log2 fold change” value did it give?
The value was -1.03.

How did the “shrunken log2 fold change” value turn out when RRIRFRPPRLPRPRPRPMNYPRP was run?
The value was -0.582.

For RRIRDRPPRLPRPRPRPGRPPRP, which “shrunken log2 fold change” value is on record?
Its value is 0.136.

RRIRNRPPRLPRPRPRPCWIPRP was tested. Which “shrunken log2 fold change” value did it give?
Its value is -0.00906.

How did the “shrunken log2 fold change” value turn out when RRIRCRPPRLPRPRPRPVLRPRP was run?
The value was 0.183.

RRIRCRPPRLPRPRPRPDLNPRP was tested. Which “shrunken log2 fold change” value did it give?
Its value is 0.127.

With RRIRIRPPRLPRPRPRPQLCPRP as the sequence, how does the “shrunken log2 fold change” value read?
The value was -0.222.

Which “shrunken log2 fold change” value does the source give for RRIRHRPPRLPRPRPRPSYTPRP here?
The value was -0.714.

For RRIRDRPPRLPRPRPRPSWAPRP, which “shrunken log2 fold change” value is on record?
The value was -0.102.

Which “shrunken log2 fold change” value does the source give for RRIRARPPRLPRPRPRPGYNPRP here?
The value was -0.403.

Which “shrunken log2 fold change” value does the source give for RRIRPRPPRLPRPRPRPKKSPRP here?
Its value is 0.085.

With RRIRNRPPRLPRPRPRPSNEPRP as the sequence, how does the “shrunken log2 fold change” value read?
Its value is -0.717.

For RRIRYRPPRLPRPRPRPQKRPRP, which “shrunken log2 fold change” value is on record?
The value was -0.0426.

For RRIRQRPPRLPRPRPRPHLYPRP, which “shrunken log2 fold change” value is on record?
The value was -0.129.

RRIRCRPPRLPRPRPRPMFKPRP was tested. Which “shrunken log2 fold change” value did it give?
The value was -0.536.

Which “shrunken log2 fold change” value does the source give for RRIRGRPPRLPRPRPRPECGPRP here?
Its value is 1.71.

For RRIRCRPPRLPRPRPRPCYFPRP, which “shrunken log2 fold change” value is on record?
Its value is -0.779.

For RRIRFRPPRLPRPRPRPHSSPRP, which “shrunken log2 fold change” value is on record?
Its value is -0.194.

Which “shrunken log2 fold change” value does the source give for RRIRKRPPRLPRPRPRPVMWPRP here?
The value was -0.221.

For RRIRTRPPRLPRPRPRPYEWPRP, which “shrunken log2 fold change” value is on record?
The value was -0.139.

RRIRQRPPRLPRPRPRPLSYPRP was tested. Which “shrunken log2 fold change” value did it give?
Its value is 0.121.

How did the “shrunken log2 fold change” value turn out when RRIRLRPPRLPRPRPRPSGKPRP was run?
The value was 0.19.

With RRIRFRPPRLPRPRPRPAGRPRP as the sequence, how does the “shrunken log2 fold change” value read?
Its value is 0.294.

How did the “shrunken log2 fold change” value turn out when RRIRGRPPRLPRPRPRPEGHPRP was run?
The value was 1.8.

For RRIRMRPPRLPRPRPRPRITPRP, which “shrunken log2 fold change” value is on record?
The value was 0.122.

How did the “shrunken log2 fold change” value turn out when RRIRHRPPRLPRPRPRPFFNPRP was run?
The value was -0.632.

With RRIRYRPPRLPRPRPRPLFRPRP as the sequence, how does the “shrunken log2 fold change” value read?
The value was -0.66.

With RRIRHRPPRLPRPRPRPWCCPRP as the sequence, how does the “shrunken log2 fold change” value read?
The value was -0.352.

With RRIRLRPPRLPRPRPRPHVRPRP as the sequence, how does the “shrunken log2 fold change” value read?
Its value is 0.0652.

For RRIRDRPPRLPRPRPRPEVFPRP, which “shrunken log2 fold change” value is on record?
Its value is 0.443.

RRIRTRPPRLPRPRPRPCYEPRP was tested. Which “shrunken log2 fold change” value did it give?
The value was -0.549.

RRIRRRPPRLPRPRPRPHGQPRP was tested. Which “shrunken log2 fold change” value did it give?
The value was 0.194.

For RRIRVRPPRLPRPRPRPEHHPRP, which “shrunken log2 fold change” value is on record?
The value was -0.334.

RRIRFRPPRLPRPRPRPCGDPRP was tested. Which “shrunken log2 fold change” value did it give?
The value was -0.01.

RRIRDRPPRLPRPRPRPRFPPRP was tested. Which “shrunken log2 fold change” value did it give?
The value was 1.75.

RRIRKRPPRLPRPRPRPAKWPRP was tested. Which “shrunken log2 fold change” value did it give?
Its value is 0.26.

How did the “shrunken log2 fold change” value turn out when RRIRTRPPRLPRPRPRPEVHPRP was run?
Its value is 0.00869.

For RRIRCRPPRLPRPRPRPFYQPRP, which “shrunken log2 fold change” value is on record?
The value was -0.163.

How did the “shrunken log2 fold change” value turn out when RRIRIRPPRLPRPRPRPKVHPRP was run?
Its value is -0.094.

RRIRPRPPRLPRPRPRPPEFPRP was tested. Which “shrunken log2 fold change” value did it give?
The value was -0.122.

RRIRGRPPRLPRPRPRPHDMPRP was tested. Which “shrunken log2 fold change” value did it give?
Its value is -0.204.

With RRIRWRPPRLPRPRPRPIINPRP as the sequence, how does the “shrunken log2 fold change” value read?
Its value is -0.609.

RRIRMRPPRLPRPRPRPFLWPRP was tested. Which “shrunken log2 fold change” value did it give?
The value was 0.0175.

For RRIRLRPPRLPRPRPRPQMMPRP, which “shrunken log2 fold change” value is on record?
Its value is -0.371.

For RRIRMRPPRLPRPRPRPNNQPRP, which “shrunken log2 fold change” value is on record?
The value was -0.0328.

Which “shrunken log2 fold change” value does the source give for RRIRFRPPRLPRPRPRPFQSPRP here?
The value was -0.00947.

RRIRNRPPRLPRPRPRPTYMPRP was tested. Which “shrunken log2 fold change” value did it give?
Its value is -0.596.

Which “shrunken log2 fold change” value does the source give for RRIRRRPPRLPRPRPRPLTLPRP here?
Its value is -0.142.

How did the “shrunken log2 fold change” value turn out when RRIRKRPPRLPRPRPRPVPQPRP was run?
The value was 0.313.

How did the “shrunken log2 fold change” value turn out when RRIRPRPPRLPRPRPRPYVGPRP was run?
The value was -0.157.

Which “shrunken log2 fold change” value does the source give for RRIRFRPPRLPRPRPRPLIKPRP here?
The value was -0.31.

With RRIRWRPPRLPRPRPRPIAVPRP as the sequence, how does the “shrunken log2 fold change” value read?
The value was 0.187.

RRIRLRPPRLPRPRPRPWNFPRP was tested. Which “shrunken log2 fold change” value did it give?
The value was -0.0899.

For RRIRNRPPRLPRPRPRPHAVPRP, which “shrunken log2 fold change” value is on record?
The value was 0.00516.

How did the “shrunken log2 fold change” value turn out when RRIRPRPPRLPRPRPRPMNIPRP was run?
Its value is -0.793.

How did the “shrunken log2 fold change” value turn out when RRIRGRPPRLPRPRPRPASAPRP was run?
The value was 0.818.

Which “shrunken log2 fold change” value does the source give for RRIRQRPPRLPRPRPRPGECPRP here?
Its value is -0.0823.

For RRIRHRPPRLPRPRPRPWRFPRP, which “shrunken log2 fold change” value is on record?
The value was 0.0342.

How did the “shrunken log2 fold change” value turn out when RRIRYRPPRLPRPRPRPNSEPRP was run?
Its value is -0.589.

How did the “shrunken log2 fold change” value turn out when RRIRHRPPRLPRPRPRPTNAPRP was run?
Its value is -0.463.

Which “shrunken log2 fold change” value does the source give for RRIRERPPRLPRPRPRPYYHPRP here?
The value was -1.58.

For RRIRQRPPRLPRPRPRPIFAPRP, which “shrunken log2 fold change” value is on record?
Its value is 0.146.

How did the “shrunken log2 fold change” value turn out when RRIRGRPPRLPRPRPRPFGTPRP was run?
Its value is 0.196.

How did the “shrunken log2 fold change” value turn out when RRIRGRPPRLPRPRPRPKQHPRP was run?
Its value is 0.906.

RRIRYRPPRLPRPRPRPDILPRP was tested. Which “shrunken log2 fold change” value did it give?
The value was 0.0101.

With RRIRKRPPRLPRPRPRPGLGPRP as the sequence, how does the “shrunken log2 fold change” value read?
Its value is 0.406.

With RRIRFRPPRLPRPRPRPKCKPRP as the sequence, how does the “shrunken log2 fold change” value read?
Its value is 0.00614.

RRIRNRPPRLPRPRPRPPELPRP was tested. Which “shrunken log2 fold change” value did it give?
The value was 0.142.

Which “shrunken log2 fold change” value does the source give for RRIRPRPPRLPRPRPRPKGFPRP here?
Its value is 0.0275.

With RRIRRRPPRLPRPRPRPMACPRP as the sequence, how does the “shrunken log2 fold change” value read?
Its value is -0.0812.

How did the “shrunken log2 fold change” value turn out when RRIRLRPPRLPRPRPRPKTYPRP was run?
The value was -0.511.

Which “shrunken log2 fold change” value does the source give for RRIRARPPRLPRPRPRPFGSPRP here?
Its value is -0.0315.

With RRIRWRPPRLPRPRPRPEIFPRP as the sequence, how does the “shrunken log2 fold change” value read?
The value was 0.0932.

How did the “shrunken log2 fold change” value turn out when RRIRKRPPRLPRPRPRPESAPRP was run?
The value was 1.72.

Which “shrunken log2 fold change” value does the source give for RRIRYRPPRLPRPRPRPGPCPRP here?
The value was -0.227.

How did the “shrunken log2 fold change” value turn out when RRIRARPPRLPRPRPRPVYEPRP was run?
The value was -0.426.

Which “shrunken log2 fold change” value does the source give for RRIRLRPPRLPRPRPRPQKTPRP here?
The value was -0.03.

With RRIRMRPPRLPRPRPRPFLRPRP as the sequence, how does the “shrunken log2 fold change” value read?
The value was -0.22.

With RRIRHRPPRLPRPRPRPGDNPRP as the sequence, how does the “shrunken log2 fold change” value read?
The value was -0.0143.

How did the “shrunken log2 fold change” value turn out when RRIRKRPPRLPRPRPRPMDAPRP was run?
The value was 0.415.

With RRIRDRPPRLPRPRPRPVSIPRP as the sequence, how does the “shrunken log2 fold change” value read?
Its value is -0.105.

RRIRGRPPRLPRPRPRPMERPRP was tested. Which “shrunken log2 fold change” value did it give?
Its value is 1.36.

How did the “shrunken log2 fold change” value turn out when RRIRSRPPRLPRPRPRPANMPRP was run?
The value was -0.289.

How did the “shrunken log2 fold change” value turn out when RRIRTRPPRLPRPRPRPRVPPRP was run?
Its value is 0.105.

With RRIRTRPPRLPRPRPRPCSAPRP as the sequence, how does the “shrunken log2 fold change” value read?
The value was -0.413.

How did the “shrunken log2 fold change” value turn out when RRIRSRPPRLPRPRPRPFNCPRP was run?
Its value is -0.441.

RRIRMRPPRLPRPRPRPVFMPRP was tested. Which “shrunken log2 fold change” value did it give?
The value was -0.202.

Which “shrunken log2 fold change” value does the source give for RRIRLRPPRLPRPRPRPAMMPRP here?
The value was -0.221.

How did the “shrunken log2 fold change” value turn out when RRIRDRPPRLPRPRPRPELRPRP was run?
Its value is 0.621.

Which “shrunken log2 fold change” value does the source give for RRIRIRPPRLPRPRPRPSPEPRP here?
Its value is -0.241.

How did the “shrunken log2 fold change” value turn out when RRIRNRPPRLPRPRPRPEIQPRP was run?
Its value is -0.0724.

For RRIRCRPPRLPRPRPRPLGWPRP, which “shrunken log2 fold change” value is on record?
Its value is 0.506.

For RRIRMRPPRLPRPRPRPDHRPRP, which “shrunken log2 fold change” value is on record?
Its value is -0.279.

How did the “shrunken log2 fold change” value turn out when RRIRARPPRLPRPRPRPMNDPRP was run?
Its value is 0.138.

How did the “shrunken log2 fold change” value turn out when RRIRHRPPRLPRPRPRPQFQPRP was run?
The value was -0.511.

Which “shrunken log2 fold change” value does the source give for RRIRERPPRLPRPRPRPFAIPRP here?
Its value is -0.122.

How did the “shrunken log2 fold change” value turn out when RRIRTRPPRLPRPRPRPKGSPRP was run?
The value was -0.0414.

For RRIRNRPPRLPRPRPRPAQEPRP, which “shrunken log2 fold change” value is on record?
Its value is 0.0303.

RRIRPRPPRLPRPRPRPKGGPRP was tested. Which “shrunken log2 fold change” value did it give?
Its value is 1.33.

With RRIRNRPPRLPRPRPRPKQFPRP as the sequence, how does the “shrunken log2 fold change” value read?
The value was -0.214.

Which “shrunken log2 fold change” value does the source give for RRIRDRPPRLPRPRPRPLRTPRP here?
Its value is 0.215.

With RRIRYRPPRLPRPRPRPIVIPRP as the sequence, how does the “shrunken log2 fold change” value read?
The value was -0.0448.

For RRIRERPPRLPRPRPRPVKVPRP, which “shrunken log2 fold change” value is on record?
The value was -0.205.

RRIRARPPRLPRPRPRPEIWPRP was tested. Which “shrunken log2 fold change” value did it give?
Its value is 1.55.

How did the “shrunken log2 fold change” value turn out when RRIRERPPRLPRPRPRPLYSPRP was run?
Its value is -0.54.

How did the “shrunken log2 fold change” value turn out when RRIRYRPPRLPRPRPRPFSMPRP was run?
Its value is -0.00208.

With RRIRNRPPRLPRPRPRPNHKPRP as the sequence, how does the “shrunken log2 fold change” value read?
Its value is -0.688.
